Here are results for 1 molecule from patent CN114195889A (NANJING FUJIEKANG BIOTECHNOLOGY CO LTD, dated 2022).

This assay addresses T1, 人源重组SARS-Cov-2-N蛋白 (SARS-CoV-2, UniProt P0DTC9 1-419).
T1 construct: range 1-419; also called SARS-Cov-2-N重组蛋白; 新冠病毒N蛋白
Description: ELISA dose-response on coated N protein.

B1: 纳米抗体1B2 (VHH)
VHH: ESGGGSVQAGGSLKLSCVAFGYTYTSGCMGWFRQAPGKGREGVATICNTDGTTAYANSVKGRFTISQDNAKNTVYLQMNSLKAEDSAMYYCAAGRTPYELASGGKNWGQGTQVTVSS
notes: also called VHH4
As for B1, the binding result is listed as “binds”.
